Key:
[1] = biological target: ZIKV CC_Core sE (A264C), disulfide-linked dimer (Zika virus (Brazilian Zika SPH2015 strain)); test: SEC; purified sE proteins on a Superose 6 column
[2] = biological target: ZIKV CC_Core sE (A264C), disulfide-linked dimer (Zika virus (Brazilian strain SPH2015)); test: SEC
[3] = biological target: ZIKV CC_Core sE (A264C), disulfide-linked dimer (Zika virus (Brazilian strain SPH2015)); test: SDS-PAGE with and without the reducing reagent DTT
[4] = biological target: ZIKV CC_Core sE (A264C), disulfide-linked dimer (Zika virus (Brazilian Zika SPH2015 strain)); test: cryo-EM structure
[5] = biological target: WNV CC_FLE sE (G5C/G102C), dimer (West Nile virus); test: SEC; purified sE proteins on a Superose 6 column
[6] = biological target: WNV CC_FLE sE (G5C/G102C), dimer (West Nile virus); test: cryo-EM structure
[7] = biological target: JEV CC_FLE sE (G5C/G102C), disulfide-linked dimer (Japanese encephalitis virus (SA-14-14-2 strain)); test: SEC; purified sE proteins on a Superose 6 column
[8] = biological target: JEV CC_FLE sE (G5C/G102C), disulfide-linked dimer (Japanese encephalitis virus (SA-14-14-2 strain)); test: cryo-EM structure
[9] = biological target: ZIKV CC_FLE sE (G5C/G102C), disulfide-linked dimer (Zika virus (Brazilian Zika SPH2015 strain)); test: SEC; purified sE proteins on a Superose 6 column
[10] = biological target: ZIKV CC_FLE sE (G5C/G102C), disulfide-linked dimer (Zika virus (Brazilian strain SPH2015)); test: SEC
[11] = biological target: ZIKV CC_FLE sE (G5C/G102C), disulfide-linked dimer (Zika virus (Brazilian strain SPH2015)); test: SDS-PAGE with and without the reducing reagent DTT
[12] = biological target: ZIKV CC_FLE sE (G5C/G102C), disulfide-linked dimer (Zika virus (Brazilian Zika SPH2015 strain)); test: cryo-EM structure

Measured: stoichiometry N

ZIKV CC_Core sE (A264C), disulfide-linked dimer (domain or fragment)
2: [1] | [2] | [3] | [4]

WNV CC_FLE sE (G5C/G102C), dimer (domain or fragment)
2: [5] | [6]

JEV CC_FLE sE (G5C/G102C), disulfide-linked dimer (domain or fragment)
2: [7] | [8]

ZIKV CC_FLE sE (G5C/G102C), disulfide-linked dimer (domain or fragment)
2: [9] | [10] | [11] | [12]

Reference: publication PMC12748774
